Consider six molecules from PMC8305194, “Structural, Mechanistic, and Functional Insights into an Arthrobacter nicotinovorans Molybdenum Hydroxylase Involved in Nicotine Degradation” (Molecules, 2021).

Substitutions are numbered along the chain they refer to. Numbers in names are those of the source.

Series [1] concerns the target T1, Kdh holoenzyme (KdhL, KdhM, KdhS); 6-hydroxypseudooxynicotine 2-oxidoreductase; ketone dehydrogenase (Paenarthrobacter nicotinovorans, UniProt Q933N0).
T1 construct: gene kdhC; kdhLMS co-expressed from pART2-kdhLMS in A. nicotinovorans pAO1; Ni-NTA (tag not described) and Superdex 200; KdhL 87 kDa, KdhM 287 residues, KdhS 160 residues; heterotrimer, dimer of heterotrimers in crystal; with 6-hydroxypseudooxynicotine dehydrogenase complex subunit alpha; 6-hydroxypseudooxynicotine dehydrogenase complex subunit beta
T1 sequence (Q933N0 1-794): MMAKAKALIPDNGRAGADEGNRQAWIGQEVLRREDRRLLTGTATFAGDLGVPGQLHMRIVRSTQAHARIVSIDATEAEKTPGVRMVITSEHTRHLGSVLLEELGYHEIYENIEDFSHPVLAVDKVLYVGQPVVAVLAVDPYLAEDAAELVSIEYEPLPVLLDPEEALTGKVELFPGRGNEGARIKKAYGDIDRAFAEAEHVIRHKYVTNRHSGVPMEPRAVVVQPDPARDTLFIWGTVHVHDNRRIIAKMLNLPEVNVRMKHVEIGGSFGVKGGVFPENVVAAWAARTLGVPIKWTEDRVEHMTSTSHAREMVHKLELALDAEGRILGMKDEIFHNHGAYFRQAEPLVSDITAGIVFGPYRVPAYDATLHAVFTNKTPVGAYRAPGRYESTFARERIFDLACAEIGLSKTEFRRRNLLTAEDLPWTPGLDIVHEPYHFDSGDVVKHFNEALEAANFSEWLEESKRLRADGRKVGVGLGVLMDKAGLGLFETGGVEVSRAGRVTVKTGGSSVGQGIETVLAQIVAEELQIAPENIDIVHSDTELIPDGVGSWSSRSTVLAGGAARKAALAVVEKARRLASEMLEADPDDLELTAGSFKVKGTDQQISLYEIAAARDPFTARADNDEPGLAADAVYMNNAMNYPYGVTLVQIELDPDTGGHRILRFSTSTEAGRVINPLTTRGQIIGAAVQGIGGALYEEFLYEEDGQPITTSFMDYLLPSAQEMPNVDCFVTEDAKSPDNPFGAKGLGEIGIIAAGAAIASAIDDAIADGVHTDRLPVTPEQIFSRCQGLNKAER
T1 sequence (O87681 1-296 partner): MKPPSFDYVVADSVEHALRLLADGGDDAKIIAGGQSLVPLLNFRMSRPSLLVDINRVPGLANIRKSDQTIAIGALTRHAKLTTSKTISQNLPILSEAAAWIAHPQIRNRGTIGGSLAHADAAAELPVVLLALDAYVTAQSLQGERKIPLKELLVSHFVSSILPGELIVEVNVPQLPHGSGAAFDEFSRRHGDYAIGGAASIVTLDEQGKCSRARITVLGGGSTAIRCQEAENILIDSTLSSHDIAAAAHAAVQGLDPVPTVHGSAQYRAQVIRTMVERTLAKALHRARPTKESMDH
T1 sequence (O87682 2-160 partner): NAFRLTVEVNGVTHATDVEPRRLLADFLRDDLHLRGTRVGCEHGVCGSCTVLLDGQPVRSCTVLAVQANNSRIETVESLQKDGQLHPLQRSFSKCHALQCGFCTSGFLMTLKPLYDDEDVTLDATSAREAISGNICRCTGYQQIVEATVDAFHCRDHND
The series can be described thus: X-ray crystal structure, […] Å. The series is classed as binding. Particulars: co-purified cofactor, MCD site in KdhL.

Series [2] deals with T2, Kdh holoenzyme, FAD site in KdhM (Paenarthrobacter nicotinovorans, UniProt O87681).
T2 construct: gene kdhA; same holoenzyme as P1; KdhM 287 residues, 32 kDa, holds FAD; with 6-hydroxypseudooxynicotine dehydrogenase complex subunit gamma; 6-hydroxypseudooxynicotine dehydrogenase complex subunit beta
T2 sequence (O87681 1-296): T1 sequence (O87681 1-296 partner)
T2 sequence (Q933N0 1-794 partner): T1 sequence (Q933N0 1-794)
T2 sequence (O87682 2-160 partner): T1 sequence (O87682 2-160 partner)
The series can be described thus: X-ray crystal structure, […] Å. In kind it is binding. Particulars: co-purified cofactor.

Substrate in the series “purified protein”: CNCCCC(=O)c1ccc(O)nc1
The series can be described thus: purified protein. In kind it is biochemical, Paenarthrobacter nicotinovorans. Particulars: 500 μM PMS, 50 μM DCIP, aerobic, 30 °C.

Series [3] deals with the molecule itself. Briefly: crystal structure; Kdh holoenzyme crystallised by hanging-drop vapor diffusion at 14 °C; 1% tryptone, 0.1 M Tris-HCl pH 8.0, 25% PEG 3350; space group P212121, two heterotrimers per asymmetric unit; 3.4 Å.
Setting [4] is: pH 8.0, Tris-HCl per Table 2 (Table 3 lists the same value under PBS pH 8.0).

Take `Nc1ccn([C@@H]2O[C@H](COP(=O)(O)OP(=O)(O)OC[C@H]3O[C@H]4Nc5nc(N)[nH]c(=O)c5N[C@H]4C(S)=C3S)[C@@H](O)[C@H]2O)c(=O)n1` [MCD]: in series [1], the “X-ray crystal structure, 3.4 Å” value was “the MCD cofactor is at the center of their intersection”.
With `Cc1cc2nc3c(=O)[nH]c(=O)nc-3n(C[C@H](O)[C@H](O)[C@H](O)COP(=O)(O)OP(=O)(O)OC[C@H]3O[C@@H](n4cnc5c(N)ncnc54)[C@H](O)[C@@H]3O)c2cc1C` [FAD], the “X-ray crystal structure, 3.4 Å” value in series [2] is recorded as “the KdhM-bound FAD cofactor is relatively less restricted from the exterior”.

B1: Kdh holoenzyme (KdhL, KdhM, KdhS); 6-hydroxypseudooxynicotine 2-oxidoreductase; ketone dehydrogenase (Paenarthrobacter nicotinovorans) (protein)
chain: T1 sequence (Q933N0 1-794)
notes: kdhLMS co-expressed from pART2-kdhLMS in A. nicotinovorans pAO1; Ni-NTA (tag not described) and Superdex 200; KdhL 87 kDa, KdhM 287 residues, KdhS 160 residues; heterotrimer, dimer of heterotrimers in crystal; with 6-hydroxypseudooxynicotine dehydrogenase complex subunit alpha; 6-hydroxypseudooxynicotine dehydrogenase complex subunit beta
As for B1, in the series “purified protein” (setting [4]), the Michaelis-Menten constant (Km) was determined as 12.5 ± 0.9 µM, the catalytic constant (kcat) is 9.03 ± 0.12 s⁻¹ and the specificity constant (kcat/Km) was determined as 720000 ± 130000 M⁻¹ s⁻¹.

B2: Kdh holoenzyme (KdhL, KdhM, KdhS); 6-hydroxypseudooxynicotine 2-oxidoreductase; ketone dehydrogenase (Paenarthrobacter nicotinovorans; R383A) (protein)
chain: T1 sequence (Q933N0 1-794) with R383A
notes: as for B1
Regarding B2, in “purified protein” (Tris-HCl pH 8.0), the Km amounted to 21.4 ± 2.3 µM, the kcat turned out to be 6.32 ± 0.16 s⁻¹ and the kcat/Km was determined as 300000 ± 70000 M⁻¹ s⁻¹.

B3: Kdh holoenzyme (KdhL, KdhM, KdhS); 6-hydroxypseudooxynicotine 2-oxidoreductase; ketone dehydrogenase (Paenarthrobacter nicotinovorans; F269A) (protein)
chain: T1 sequence (Q933N0 1-794) with F269A
notes: as for B1
On to B3, for which, in “purified protein” (Tris-HCl pH 8.0), the Km was 25.98 ± 2.73 µM, the kcat is 2.3 ± 0.07 s⁻¹ and the kcat/Km is 90000 ± 30000 M⁻¹ s⁻¹.

B4: Kdh holoenzyme (heterotrimer of KdhL, KdhM and KdhS) (complex, Arthrobacter nicotinovorans)
chain 1: MMAKAKALIPDNGRAGADEGNRQAWIGQEVLRREDRRLLTGTATFAGDLGVPGQLHMRIVRSTQAHARIVSIDATEAEKTPGVRMVITSEHTRHLGSVLLEELGYHEIYENIEDFSHPVLAVDKVLYVGQPVVAVLAVDPYLAEDAAELVSIEYEPLPVLLDPEEALTGKVELFPGRGNEGARIKKAYGDIDRAFAEAEHVIRHKYVTNRHSGVPMEPRAVVVQPDPARDTLFIWGTVHVHDNRRIIAKMLNLPEVNVRMKHVEIGGSFGVKGGVFPENVVAAWAARTLGVPIKWTEDRVEHMTSTSHAREMVHKLELALDAEGRILGMKDEIFHNHGAYFRQAEPLVSDITAGIVFGPYRVPAYDATLHAVFTNKTPVGAYRAPGRYESTFARERIFDLACAEIGLSKTEFRRRNLLTAEDLPWTPGLDIVHEPYHFDSGDVVKHFNEALEAANFSEWLEESKRLRADGRKVGVGLGVLMDKAGLGLFETGGVEVSRAGRVTVKTGGSSVGQGIETVLAQIVAEELQIAPENIDIVHSDTELIPDGVGSWSSRSTVLAGGAARKAALAVVEKARRLASEMLEADPDDLELTAGSFKVKGTDQQISLYEIAAARDPFTARADNDEPGLAADAVYMNNAMNYPYGVTLVQIELDPDTGGHRILRFSTSTEAGRVINPLTTRGQIIGAAVQGIGGALYEEFLYEEDGQPITTSFMDYLLPSAQEMPNVDCFVTEDAKSPDNPFGAKGLGEIGIIAAGAAIASAIDDAIADGVHTDRLPVTPEQIFSRCQGLN
chain 2: MKPPSFDYVVADSVEHALRLLADGGDDAKIIAGGQSLVPLLNFRMSRPSLLVDINRVPGLANIRKSDQTIAIGALTRHAKLTTSKTISQNLPILSEAAAWIAHPQIRNRGTIGGSLAHADAAAELPVVLLALDAYVTAQSLQGERKIPLKELLVSHFVSSILPGELIVEVNVPQLPHGSGAAFDEFSRRHGDYAIGGAASIVTLDEQGKCSRARITVLGGGSTAIRCQEAENILIDSTLSSHDIAAAAHAAVQGLDPVPTVHGSAQYRAQVIRTMVERTLAKALHRA
chain 3: MNAFRLTVEVNGVTHATDVEPRRLLADFLRDDLHLRGTRVGCEHGVCGSCTVLLDGQPVRSCTVLAVQANNSRIETVESLQKDGQLHPLQRSFSKCHALQCGFCTSGFLMTLKPLYDDEDVTLDATSAREAISGNICRCTGYQQIVEATVDAFHCRDHND
notes: KdhL, 87 kDa molybdopterin (MCD) subunit of Kdh, Arthrobacter nicotinovorans; KdhM, 32 kDa FAD subunit of Kdh, Arthrobacter nicotinovorans; contains 287 residues; KdhS, 17.6 kDa Fe2S2 subunit of Kdh, Arthrobacter nicotinovorans; has 160 residues; Heterotrimer with MCD, two Fe2S2 and FAD; two heterotrimers form the dimer seen in the crystal; also called ketone dehydrogenase; …
In the case of B4, the “stoichiometry N” value in series [3] stood at 2.
